Test [1] has as its target T1, FOLR1-Fc (UniProt P15328 25-234, limits assumed).
T1 construct: also called FOLR1 (ELISA coating); not shown: Fc part
Put plainly: ELISA, FOLR1-Fc coated, antibody titrated (experiment with vAb1). The method, then:
(§1) For the purpose of comparing the binding affinities of the primarily selected clones with each other, ELISA was performed at different clone concentrations in the following manner. 25 μL of FOLR1 was added to each well of a 96-well plate at a concentration of 1 μg/mL, coated on the plate at room temperature for 1 hour, and then blocked with 180 μL of 3% skim milk at room temperature for 1 hour. During blocking, samples to be used as primary antibodies were prepared. As primary antibodies, samples selected by screening were used. The samples were diluted to a concentration of 0.1 to 100 nM (0, 0.1, 0.3, 1, 3, 10, 30, and 100 nM) and cold-stored until use. After blocking, 3% skim milk was removed, and 25 μL of the primary antibody was added to each well and allowed to react at room temperature for 1 hour or more. After completion of the reaction, each well was washed three times with PBS-Tween20 (0.1%) buffer. […] After about 5 minutes, 25 μL of 1 M H₂SO₄ was added to each well to stop the reaction, and the absorbance at a wavelength of 450 nm was measured. From the measurement results, the EC (Effector concentration) value was calculated using the GraphPad Prism 7 program.
(§2) The measured values are obtained in different experiments for comparison with the parent antibody.

Test [2] deals with T1, FOLR1-Fc. Kind of test: ELISA, FOLR1-Fc coated, antibody titrated (experiment with vAb3, vAb4, vAb5). The method, then:
as §1, §2
A general note: In an ELISA, binding on a coated surface is turned into a signal by an enzyme label.

Test [3] addresses T1, FOLR1-Fc. Kind of test: ELISA, FOLR1-Fc coated, antibody titrated (experiment with vAb2). The method, then:
as §1, §2

The target in test [4] is T1, FOLR1-Fc. Put plainly: ELISA, FOLR1-Fc coated (experiment with vAb1); the parent is the reference.
Test [5] concerns the target T2, Folate receptor alpha (FOLR1) (human, UniProt P15328 25-234, limits assumed).
T2 construct: Antigen printed simply as FOLR1 for the panning, the clone ELISA and the SPR chip; also called human FOLR1; folate receptor-α
Kind of test: SPR, Biacore3000, FOLR1 immobilised on CM5 chip, antibody as analyte. How it is done: (§3) To measure the binding affinity of the selected clone for FOLR1, SPR measurement was performed using a Biacore3000. Before each sample was loaded, a CM5 sensor chip was activated with 0.1 M NHS/0.4 M EDC, and then FOLR1 (20 μg/mL in 10 mM acetate, pH 5.0) was immobilized thereon. Then, unreacted NHS was deactivated with 1 M ethanolamine. 250 μL of each sample was prepared at concentrations of 1, 2, 5, 10, 20 and 40 nM, and association and dissociation sensorgrams were obtained while each sample was flushed at 30 μl/min. The sensor chip was regenerated with 10 mM glycine (pH 2.1). The obtained sensorgrams were analyzed using the BIAevaluation software, and the KD values were calculated.
(§4) To measure the binding affinity of the modified antibody vAb1 produced in Example 2 for FOLR1, an SPR assay was performed using a Biacore3000, in the same manner as described in Examples 1-5. The sensorgram was analyzed using the BIAevaluation software, and the KD value was calculated. […] This value is similar to the relative ratio of the values obtained using ELISA.
(In general: SPR reads the build-up and loss of mass on a sensor chip optically.)

Test [6] has as its target T1, FOLR1-Fc. Kind of test: ELISA, FOLR1-Fc coated (experiment with vAb3, vAb4, vAb5); the parent is the reference. The method, then: as §1, §2
Test [7] deals with T1, FOLR1-Fc. Put plainly: ELISA, FOLR1-Fc coated (experiment with vAb2); the parent is the reference.
Test [8] has as its target T2, Folate receptor alpha (FOLR1). Kind of test: SPR, Biacore3000, FOLR1 immobilised; the parent is the reference. How it is done: as §3, §4
The target in test [9] is T1, FOLR1-Fc. Kind of test: ELISA, FOLR1-Fc coated. The method, then:
(§5) For the purpose of comparing the binding affinities of the primarily selected clones with each other, ELISA was performed at different clone concentrations in the following manner. 25 μL of FOLR1 was added to each well of a 96-well plate at a concentration of 1 μg/mL, coated on the plate at room temperature for 1 hour, and then blocked with 180 μL of 3% skim milk at room temperature for 1 hour. During blocking, samples to be used as primary antibodies were prepared. As primary antibodies, samples selected by screening were used. The samples were diluted to a concentration of 0.1 to 100 nM (0, 0.1, 0.3, 1, 3, 10, 30, and 100 nM) and cold-stored until use. After blocking, 3% skim milk was removed, and 25 μL of the primary antibody was added to each well and allowed to react at room temperature for 1 hour or more. After completion of the reaction, each well was washed three times with PBS-Tween20 (0.1%) buffer. As a secondary antibody, HA-HRP was diluted 3,000-fold with 3% skim milk, and 25 μL of the dilution was added to each well and allowed to react at room temperature for 1 hour or more. After completion of the reaction, each well was washed three times with PBS-Tween20 (0.1%), and 25 μL of substrate TMB was added to each well to confirm color development. After about 5 minutes, 25 μL of 1 M H₂SO₄ was added to each well to stop the reaction, and the absorbance at a wavelength of 450 nm was measured. From the measurement results, the EC (Effector concentration) value was calculated using the GraphPad Prism 7 program.
as §2

Test [10] deals with T1, FOLR1-Fc. Put plainly: ELISA, FOLR1-Fc coated, antibody titrated. The method, then: as §5, §2
Test [11] addresses T2, Folate receptor alpha (FOLR1). Put plainly: SPR, Biacore3000, FOLR1 immobilised. The method, then:
as §3, §4

Substitutions are numbered along the chain they refer to.

As a reminder, the EC50 is the concentration that produces a half-maximal response. A low value points to a more potent agent. As usually defined, the Kd is the equilibrium constant for the complex coming apart. Read a high Kd as lower affinity. Usually koff stands for a measure of how fast the partners let go of each other. A higher koff goes with fast dissociation. As usually defined, the kon is the second-order rate constant of association. Low readings indicate slow association, high ones fast association.

T1 sequence (P15328 25-234 limits assumed): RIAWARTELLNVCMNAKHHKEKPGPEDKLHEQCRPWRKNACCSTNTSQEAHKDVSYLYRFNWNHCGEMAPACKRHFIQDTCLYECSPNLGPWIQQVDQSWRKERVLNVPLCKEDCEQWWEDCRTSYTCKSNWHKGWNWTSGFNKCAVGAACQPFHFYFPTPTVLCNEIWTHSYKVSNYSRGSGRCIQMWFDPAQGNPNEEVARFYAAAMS
T2 sequence (P15328 25-234 limits assumed): as above

B1: Parent antibody (anti-FOLR1 antibody of US2005/0232919 A1) (antibody, V domains shown)
VH: EVQLVESGGGVVQPGRSLRLSCSASGFTFSGYGLSWVRQAPGKGLEWVAMISSGGSYTYYADSVKGRFAISRDNAKNTLFLQMDSLRPEDTGVYFCARHGDDPAWFAYWGQGTPVTVSS
VL: DIQLTQSPSSLSASVGDRVTITCSVSSSISSNNLHWYQQKPGKAPKPWIYGTSNLASGVPSRFSGSGSGTDYTFTISSLQPEDIATYYCQQWSSYPYMYTFGQGTKVEIK
notes: also called WT
For the molecule B1, the EC50 is 11 ng/mL with FOLR1-Fc [1], 3.04 ng/mL in the test with FOLR1-Fc [2] and 11.8 ng/mL with FOLR1-Fc [3]. The “Relative Potency” value (in the test with FOLR1-Fc [4]; with FOLR1-Fc [6]; in the test with FOLR1-Fc [7]; in [8]) was 1 fold (reference) throughout. Also, the Ka in test [5] turned out to be 1.05e+09 M⁻¹. In test [5], the Kd was determined as 960 pM. The molecule also gave a koff in test [5] of 0.000401 s⁻¹. In [5], this molecule showed a kon of 419000 M⁻¹ s⁻¹.

B2: Modified antibody vAb1 (antibody, V domains shown)
VH: B1 VH with P103V
VL: B1 VL with V25A, S28G, I29L, N32S, N33Y, N54S, L55R
notes: Carries modified CDR-H3, CDR-L1 and CDR-L2
In test [5], B2 gave a Ka of 4.17e+09 M⁻¹, a Kd of 240 pM, an off-rate (koff) of 0.000147 s⁻¹ and a kon of 612000 M⁻¹ s⁻¹. Further, the “Relative Potency” value with FOLR1-Fc [9] is 4.48 fold against parent antibody. This molecule also showed a half-maximal effective concentration (EC50) in the test with FOLR1-Fc [10] of 2.45 ng/mL. Moreover, the “Relative Potency” value in test [11] is 4 fold against parent antibody.

For the origin of these results see patent US20210009685A1 (ALTEOGEN, published 2021).
